This experiment concerns the target A1-tagged Gal-1 (galectin-1) (UniProt P09382). Description: FRET or BRET; in vitro sensitized acceptor emission FRET titration; 100 nM ATTO-488-labelled Gal-1 titrated with 100 nM to 1000 nM DY-547-labelled C-Raf-RBD; 25 mM HEPES, 100 mM NaCl, 3 mM MgCl2, 3 mM DTT, pH 7.2. A general note: BRET reads energy transfer from a luciferase to a nearby fluorophore.

What is called Kd is a measure of binding affinity in units of concentration.

In the case of “A1-tagged C-Raf-RBD (from UniProt P04049 56-131) (domain or fragment)”, the Kd amounted to 106 nM.

The values are drawn from paper PMC4834570.
